Test [1] deals with T1, SLC6A6 (solute carrier family 6 (neurotransmitter transporter, taurine), member 6) on human colorectal cancer … (human, UniProt P31641 1-620).
T1 construct: Endogenous protein on ten colorectal cancer cell lines (Caco-2, COLO201, DLD-1, HCT15, HCT116, HT-29, LoVo, SW480, SW620, WiDr); also called native SLC6A6
T1 sequence: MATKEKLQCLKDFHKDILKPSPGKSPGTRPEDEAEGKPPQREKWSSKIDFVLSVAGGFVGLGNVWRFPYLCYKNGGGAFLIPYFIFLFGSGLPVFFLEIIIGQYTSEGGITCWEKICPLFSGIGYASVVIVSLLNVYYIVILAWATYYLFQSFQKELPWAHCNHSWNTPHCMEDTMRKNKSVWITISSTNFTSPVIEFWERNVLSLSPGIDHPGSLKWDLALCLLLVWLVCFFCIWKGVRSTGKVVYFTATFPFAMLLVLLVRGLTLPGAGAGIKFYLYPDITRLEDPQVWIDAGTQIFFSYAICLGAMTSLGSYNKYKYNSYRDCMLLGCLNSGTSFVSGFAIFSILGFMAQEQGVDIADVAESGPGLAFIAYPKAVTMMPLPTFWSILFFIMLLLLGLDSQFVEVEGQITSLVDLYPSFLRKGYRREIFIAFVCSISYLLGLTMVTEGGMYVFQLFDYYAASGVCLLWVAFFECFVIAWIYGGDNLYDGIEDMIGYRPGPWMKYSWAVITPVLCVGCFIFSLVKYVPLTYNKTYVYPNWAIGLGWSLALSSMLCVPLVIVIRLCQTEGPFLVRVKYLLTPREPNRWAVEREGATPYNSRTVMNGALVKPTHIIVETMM
The test is described as follows: flow cytometry on 10 colorectal cancer cell lines, antibody at 1 ug/mL. As to the method: Ten lines of colorectal cancer cells were each cultured to reach 90% confluency. The cells of each line were washed twice with PBS, detached with a scraper and collected into a 1.5 mL tube. 4B9b and 5H12d antibodies were each added to give a final concentration of 1 μg/mL, followed by reaction for 60 minutes. After washing twice with PBS+2% FBS, AlexaFluor 488-labeled goat anti-mouse IgG (Invitrogen) was added as a 1/1000 dilution in PBS+2% FBS, followed by reaction for 30 minutes. After washing twice with PBS+2% PBS(FBS?), the cells were analyzed by Guava Flow Cytometry (Millipore).
(In general: In flow cytometry, cells or beads pass a laser one at a time.)

The target in test [2] is T2, partial protein of the extracellular region of SLC6A6 (amino acid residues 143 to 216), His tag at the … (human, UniProt P31641 143-216).
T2 construct: also called SLC6A6 partial protein for screening; recombinant protein obtained in (6); not shown: His tag added to the C-terminal end (pET32 vector)
T2 sequence: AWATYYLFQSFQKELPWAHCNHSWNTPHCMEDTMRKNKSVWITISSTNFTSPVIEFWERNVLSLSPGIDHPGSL
The test is described as follows: ELISA on plate-bound recombinant SLC6A6 partial protein, antibody 0 to 40 ug/mL. On the procedure: The recombinant protein obtained in (6) above (10 μg/ml) was dispensed in 100 μL volumes into MaxiSorp 96-well plates (Nunc) and adsorbed onto the plates at room temperature for 1 hour. After adsorption, each well was washed with TBS-T (25 mM Tris, 150 mM NaCl, 0.05% (v/v) Tween 20, pH 7.4) and charged with skimmed milk (GIBCO), which had been diluted at a concentration of 5% with TBS-T, to conduct blocking for 30 minutes at room temperature. After each well was washed three times with 200 μL TBS-T, […] ELISA plates in a volume of 100 μL per well, followed by reaction at room temperature for 1 hour. Each well was washed three times with […] TBS-T.
For use as a secondary antibody, anti-mouse IgG polyclonal antibody-HRP label (BETHYL) was diluted 5,000-fold with TBS-T. The above antibody dilution was added in a volume of 100 μL per well and reacted at room temperature for 30 minutes. Each well was washed three times with 200 μL TBS-T. Orthophenylenediamine (Sigma) was diluted with 50 mM carbonate-citrate buffer (pH 5.0) to give a final concentration of 0.5 mg/mL and mixed with 1/10,000 volumes of 35% (w/w) aqueous hydrogen peroxide (WAKO). […] The absorbance at 492 nm was measured with a plate reader (SpectraMax Plus 384, Molecular Devices) to analyze antibody titers, which were then used for selection of mice to be used for cell fusion. […]
A general note: ELISA stands for enzyme-linked immunosorbent assay.

B1: 4B9b antibody (produced by Mouse-Mouse hybridoma 4B9b, FERM BP-11413) (antibody, mouse IgM, V domains shown)
VH: QVKLQQSGAELMKPGASVKISCKATGYTFSRYWIEWVKQRPGHGLEWIGEILPGSGSTNYNEKFKGKATFTADTSSNTAYMQLSSLTSEDSAVYYCARGGFLGHYGFAYWGQGTLVTVSA
VL: DIQLTQSPTTMAASPGEKITITCSASSSISSNYLHWYQQKPGFSPKLLIYRTSNLASGVPARFSGSGSGTSYSLTIGTMEAEDVATYYCQQGSSIPYTFGGGTKLEIK
notes: also called anti-SLC6A6 antibody, 4B9b
As to B1, the binding result in test [1] was “binds”.

B2: mouse IgG1-converted anti-SLC6A6 antibody (4B9b) (antibody, V domains shown)
VH: B1 VH
VL: DIQLTQSPTTMAASPGEKITITCSASSSISSNYLHWYQQKPGFSPKLLIYRTSNLASGVPARFSGSGSGTSYSLTIGTMEAEDVATYYCQQGSSIPYTFGGGTKLEIKR
notes: Expressed in Cos7 cells and purified on Protein G; also called mouse IgG-converted antibody; mouse IgG-chimerized antibody
As for B2, the binding result in test [2] is recorded as “binds”.

Source of the values: patent publication US20160009799A1 (ORDER MADE MEDICAL RESEARCH, published 2016).
